Columns and labels:
human PACE4 = molecular target: T1, human PACE4 (Homo sapiens, UniProt P29122); assay: FGE processing in CHO-FD11 Tet-On cells co-expressing PACE4; format: cell-based; details: PACE4 coexpression
T1 construct: expressed in transfected cells; host or cells: CHO-FD11 Tet-On cells, transient co-transfection with pBI-FGE-HA
T1 sequence (P29122 150-969): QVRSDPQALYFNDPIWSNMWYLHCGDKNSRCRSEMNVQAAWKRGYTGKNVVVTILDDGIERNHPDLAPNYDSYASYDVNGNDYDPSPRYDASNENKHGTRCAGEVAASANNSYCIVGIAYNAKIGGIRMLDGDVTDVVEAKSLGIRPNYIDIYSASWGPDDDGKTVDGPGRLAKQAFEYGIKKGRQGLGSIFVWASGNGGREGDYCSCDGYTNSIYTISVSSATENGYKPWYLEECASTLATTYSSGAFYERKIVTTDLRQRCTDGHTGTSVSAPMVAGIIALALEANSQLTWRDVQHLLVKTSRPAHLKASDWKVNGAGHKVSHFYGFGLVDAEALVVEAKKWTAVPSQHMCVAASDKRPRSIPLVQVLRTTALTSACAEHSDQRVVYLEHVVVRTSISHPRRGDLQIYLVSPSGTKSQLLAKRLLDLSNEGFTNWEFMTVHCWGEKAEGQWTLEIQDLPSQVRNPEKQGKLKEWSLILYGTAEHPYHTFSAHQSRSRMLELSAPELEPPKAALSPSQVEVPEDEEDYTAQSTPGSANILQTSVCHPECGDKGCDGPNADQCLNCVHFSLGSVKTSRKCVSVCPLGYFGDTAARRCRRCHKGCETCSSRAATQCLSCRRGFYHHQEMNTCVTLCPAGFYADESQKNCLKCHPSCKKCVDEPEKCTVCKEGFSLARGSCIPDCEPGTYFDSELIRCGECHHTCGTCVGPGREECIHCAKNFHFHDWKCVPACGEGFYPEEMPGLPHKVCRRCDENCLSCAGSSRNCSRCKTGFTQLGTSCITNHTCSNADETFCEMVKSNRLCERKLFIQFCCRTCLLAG
Excerpt: (§1) The resulting constructs were verified by full-length sequencing of the coding region to exclude any PCR prone errors. Plasmids for expression of the PCs encoding human furin (Gene ID 5045), human PACE4 (=PCSK6, Gene ID 5046), murine […] (=Pcsk5, Gene ID 18552) and rat PC7 (=Pcsk7, Gene ID 29606) were kindly provided by Abdel-Majid Khatib (18). Note that the PC cDNAs were encoded as pIRES constructs coding also for enhanced green fluorescence protein (EGFP) such that EGFP expression levels serve as a measure of the expression levels of PCs.
(§2) 3 μg of pSB-FGE-RGS-His6 vector was used for single transfections of HT1080, HeLa, HEK 293, BHK and CHO cells. Conditioned medium was collected after 24 h and centrifuged (500×g, 5 min) Cells were washed once with PBS, treated with trypsin (Lonza) and pelleted by 250×g to remove the medium. Cell pellets were resuspended in PBS (pH 7.4) containing protease inhibitor (PI) cocktail (Sigma) and lysed by sonication 3×10 s on ice. For co-expression of FGE with one of the PCs in CHO-FD11 Tet-On cells 2 μg of pBI-FGE-HA and 2 μg of the plasmids encoding PCs (see above) were used for transient transfection. In case of transient transfections using pBI-vector constructs the protein expression was induced by replenishing the medium with medium containing 2 μg/mL doxycycline (BD Biosciences) at 5 h post-transfection. […]

PC5a = molecular target: T2, PC5a (Mus musculus, UniProt Q04592); assay: FGE processing in CHO-FD11 Tet-On cells co-expressing PC5a; format: cell-based, murine; details: PC5a coexpression
T2 construct: expressed in transfected cells; host or cells: CHO-FD11 Tet-On cells, transient co-transfection with pBI-FGE-HA
T2 sequence (Q04592 117-915 isoform Q04592-2 limits assumed): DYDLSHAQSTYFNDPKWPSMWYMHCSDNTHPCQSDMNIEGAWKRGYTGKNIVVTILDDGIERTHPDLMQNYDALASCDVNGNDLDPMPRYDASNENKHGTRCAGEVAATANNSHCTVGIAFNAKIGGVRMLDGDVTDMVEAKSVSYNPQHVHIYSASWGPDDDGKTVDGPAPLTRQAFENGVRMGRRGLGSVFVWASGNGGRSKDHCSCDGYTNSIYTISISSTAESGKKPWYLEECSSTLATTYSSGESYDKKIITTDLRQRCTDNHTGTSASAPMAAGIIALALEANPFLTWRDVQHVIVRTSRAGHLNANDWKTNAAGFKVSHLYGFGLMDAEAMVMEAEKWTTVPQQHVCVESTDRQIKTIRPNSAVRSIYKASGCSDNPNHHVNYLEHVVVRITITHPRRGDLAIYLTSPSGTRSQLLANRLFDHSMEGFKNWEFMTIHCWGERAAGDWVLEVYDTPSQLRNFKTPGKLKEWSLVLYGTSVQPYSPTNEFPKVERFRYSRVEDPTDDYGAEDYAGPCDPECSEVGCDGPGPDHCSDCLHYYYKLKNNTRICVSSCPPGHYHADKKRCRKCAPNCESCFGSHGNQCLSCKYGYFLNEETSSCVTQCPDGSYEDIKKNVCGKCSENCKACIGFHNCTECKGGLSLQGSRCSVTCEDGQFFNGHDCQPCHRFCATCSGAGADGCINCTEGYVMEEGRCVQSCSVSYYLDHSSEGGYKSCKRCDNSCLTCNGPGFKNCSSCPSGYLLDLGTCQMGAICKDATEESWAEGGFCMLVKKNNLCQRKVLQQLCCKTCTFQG
Excerpt: as §1, §2

- processing of FGE (human PACE4): low efficiency
- processing of FGE (PC5a): low efficiency
B1: FGE: human wild type full length formylglycine generating enzyme with RYSR furin cleavage motif, SEQ ID NO:2 (protein)
chain: ADEFSQEAGTGAGAGSLAGSCGCGTPQRPGAHGSSAAAHRYSREANAPGPVPGERQLAHSKMVPIPAGVFTMGTDDPQIKQDGEAPARRVTIDAFYMDAYEVSNTEFEKFVNSTGYLTEAEKFGDSFVFEGMLSEQVKTNIQQAVAAAPWWLPVKGANWRHPEGPDSTILHRPDHPVLHVSWNDAVAYCTWAGKRLPTEAEWEYSCRGGLHNRLFPWGNKLQPKGQHYANIWQGEFPVTNTGEDGFQGTAPVDAFPPNGYGLYNIVGNAWEWTSDWWTVHHSVEETLNPKGPPSGKDRVKKGGSYMCHRSYCYRYRCAARSQNTPDSSASNLGFRCAADRLPTMDSGRGSHHHHHHH
modifications: cloned matured acitve full length FGE with 6x His tag on C-terminus

— US20150141617A1, “PRODUCTION AND PURIFICATION OF ACTIVE EUKARYOTIC FORMYLGLYCINEGENERATING ENZYME (FGE) VARIANTS” (Universität Bielefeld, priority 2013, published 2015)
